Laboratory results from publication PMC10643698.
“And” between values parts separate entries of the source, which are not always exact repeats. Identical values can stand only once. Like-named read-outs stand apart in the source and are kept apart here. One block for each substance: values may come before it.

Columns and labels:
[1] = target: Meiothermus taiwanensis LonA, wild type, full length (Meiothermus taiwanensis); assay: cryo-EM structure; wild-type MtaLon 1 μM (as hexamer) incubated with 5 mM ADP overnight; single-particle reconstruction without symmetry
[2] = target: Meiothermus taiwanensis LonA, wild type, full length (Meiothermus taiwanensis); assay: cryo-EM structure; wild-type MtaLon 1 μM (as hexamer) without any nucleotide (MtaLon-Apo)
[3] = target: Meiothermus taiwanensis LonA, wild type, full length (Meiothermus taiwanensis); assay: cryo-EM structure; wild-type MtaLon 1 μM (as hexamer) incubated with 5 mM ADP overnight; single-particle reconstruction without symmetry; remark: listed apart in the source
[4] = target: Meiothermus taiwanensis LonA, wild type, full length (Meiothermus taiwanensis); assay: cryo-EM structure; wild-type MtaLon 1 μM (as hexamer) without any nucleotide (MtaLon-Apo); remark: listed apart in the source
[5] = target: MtaLon-M217A (Meiothermus taiwanensis); assay: cryo-EM structure; MtaLon-M217A 1 μM (as hexamer) with 10 μM casein and 5 mM ADP, 3 h
[6] = target: MtaLon-S678A (Meiothermus taiwanensis); assay: cryo-EM structure; MtaLon-S678A 1 μM (as hexamer) with 10 μM casein and 5 mM ADP, overnight
[7] = target: MtaLon-S678A (Meiothermus taiwanensis); assay: as above; remark: listed apart in the source
[8] = target: fluorescein isothiocyanate (FITC)-labeled casein (UniProt P02662); assay: fluorescence polarisation; MtaLon samples serially diluted (5 µM to 0.01 µM) mixed with 1.25 µM FITC-casein, 1 mM ADP, 4 °C, 3 h; triplicates
UniProt P02662, sequence (P02662 16-214): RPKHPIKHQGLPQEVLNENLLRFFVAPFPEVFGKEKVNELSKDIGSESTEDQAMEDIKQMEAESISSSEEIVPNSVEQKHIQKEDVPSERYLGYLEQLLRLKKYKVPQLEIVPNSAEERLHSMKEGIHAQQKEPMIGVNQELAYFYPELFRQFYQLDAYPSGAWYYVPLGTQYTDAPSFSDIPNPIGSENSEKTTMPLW

[9] = target: MtaLon-Y224S (Meiothermus taiwanensis); assay: cryo-EM structure; 10 μM ΔN-E613K and 5 mM ADP incubated with 1 μM MtaLon-Y224S at 4 °C for 1 h, mixture purified on Superose 6 Increase; 5+1 heteromeric complex
[10] = target: MtaLon-Y224S (Meiothermus taiwanensis); assay: cryo-EM structure; MtaLon-Y224S 1 μM (as hexamer) incubated with 5 mM ATPγS overnight
[11] = target: MtaLon-Y397A/S678A (Meiothermus taiwanensis); assay: cryo-EM structure; MtaLon-Y397A/S678A 1 μM (as hexamer) with 10 μM casein and 5 mM ATPγS, 3 h

Substance: Meiothermus taiwanensis LonA, wild type, full length (enzyme)
- stoichiometry N [1]: 3 and 4
- stoichiometry N [2]: 3 and 4
- stoichiometry N [3]: 5 and 6
- stoichiometry N [4]: 5 and 6

Substance: MtaLon-S678A (enzyme)
- stoichiometry N [6]: 5
- stoichiometry N [7]: 6
- Kd [8]: 1380 nM

Continued, values first:

- stoichiometry N [5]: 5 and 6
Substance: MtaLon-M217A (enzyme)

- stoichiometry N [9]: 5 and 6
- stoichiometry N [10]: 5 and 6
Substance: MtaLon-Y224S (enzyme)

- stoichiometry N [11]: 5 and 6
Substance: MtaLon-Y397A/S678A (enzyme)
